The supplement of paper PMC9170038

Columns and labels:
MS2 coat protein [1] = assay: apparent KD of MS2 coat protein, switch ON state; designed switch direction (-1 OFF switch, 1 ON switch): 1; higher = weaker reporter binding; settings: FMN input: 0 or 200 uM; Eterna round: R93 (includes R88 designs)
Method in brief: (§1)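 SNAP-549-labelled MS2 coat protein was titrated onto designed RNA switches that had been transcribed on-chip from Illumina sequencing clusters. Amounts doubled from 0.7 or 1.5 nM to 3 µM in 100 mM Tris-HCl pH 7.5, 80 mM KCl, 4 mM MgCl2, with constant ligand or without. Apparent KD is the median per design of normalised cluster binding-curve fits.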

MS2 coat protein [2] = assay: apparent KD of MS2 coat protein, switch OFF state (with FMN for OFF switches, without FMN for ON switches); designed switch direction (-1 OFF switch, 1 ON switch): 1; higher = weaker reporter binding; settings: FMN input: 0 or 200 uM; Eterna round: R93 (includes R88 designs)
Method in brief: as §1

| Sequence | apparent KD of MS2 coat protein (MS2 coat protein [1]) | apparent KD of MS2 coat protein (MS2 coat protein [2]) |
| --- | --- | --- |
| AGAAAUAAAGGAGAGGAUAUCCAAAAGAAAACAUGAGGAUCACCCAUGUAAAAGAAAAUAAAGUGGGAGAAGGCUUCAAAUAAGA [Starry modified V5] | 18.7 nM | 45.2 nM |
| AGAAAUAAAAGACAGGAUAUCCAAAACUCAACAUGAGGAUCACCCAUGUAAAAGAAAAUAAAAUGGGAGAAGGGUCAAAAUAAGA [Jieux modified + C segment V2] | 15.3 nM | 33.8 nM |
| UUAUUACAUGAGGAUCACCCAUGUUUAGUGGUGACAGGAUAUACGAAAAAAAAAAAAAAAGUAGAAGGGUCUUAUU [SS 1.1] | 162 nM | 50.5 nM |
| AACAAUCUAUCUGAGGAUAUCAUGUCAAAGACAUGAGGAUCACCCAUGUAGCAGGAAACUGCAUAUGAGAAGGCAGAUAGAUUGA [SS2: 1118] | 16.3 nM | 166 nM |
| AAGAAACAUGAGGAUCACCCAUGUGAGAUAAACACAGGAUAUGCGAAAAUAAAUAAAUAAGCAGAAGGGUGAAGAA [Mat - Same State 1 - Tesla mod - 69] | 30.2 nM | 82.6 nM |
| AUAUAUAUAAGGUAGGAUAUCCAAUAAUCCACAUGAGGAUCACCCAUGUAAAGAAAGAAAAAGUGGGAGAAGGGCCAUAUAUAUA [viburnum 7] | 17.4 nM | 48.4 nM |
| AAUAUACAUGAGGAUCACCCAUGUAUUAAUAGCUGAGGAUAUACGGGUGAAAAUAGCAUAGUAGAAGGCGGGUGUA [SameState1 Malc#10] | 107 nM | 144 nM |
| AAUAUAUUAAGUGAGGAUAUCGAGGAAAAAACAUGAGGAUCACCCAUGUGGGAAACAUGGUCGGGUGAGAAGGCACUUAAUAUAU [Samwise Clockwise 25 - Jieux - Same State 2] | 125 nM | 326 nM |
| ACAAACAAAAAAGAGGAUAUCCUAAACAAAACAUGAGGAUCACCCAUGUAAAAAAAAAUAAAAUGGGAGAAGGCUUACAACAAAC [SS2 M 23] | 68 nM | 51.7 nM |
| AGCGAACAUGAGGAUCACCCAUGUGAAAAACAUAGAGGAUAUGUCGCAUGCGUGUAAAAGACAGAAGGCUAUCGCG [Mat - Mod of Nando] | 24 nM | 52.1 nM |
| GAAAAACAUGAGGAUCACCCAUGUGGAAAUAUGGGAGGAUAUACGAAGACGAAAGUCGAAGUAGAAGGCCUAAAAG [Same State 1.4d (Mat - Mod of Eli - )] | 29.5 nM | 98.1 nM |
| AAAAAACAUGAGGAUCACCCAUGUCAAAAGACAUGAGGAUAUGUACAGACUUCGGUCUGUACAGAAGGCAUGUCAA [SS1 - 1019] | 21.1 nM | 31.7 nM |
| GAAGACAUAGUAUAGGAUAUAUGAAUAAUUACAUGAGGAUCACCCAUGUGCAUUUAUAUGCGAACAUAGAAGGGUGGUAGUUGUC [Mat - Same state - Malcolm Mod - D129] | 633 nM | 59.2 nM |
| GGGAGACAUGAGGAUCACCCAUGUGAGAAGAGGCGAGGAUAUCGAAAGAAAGAAGAGAAACGAGAAGGCGCGAGGA [salish99-SS1-051] | 37.7 nM | 44.7 nM |
| AAAAAACAUGAGGAUCACCCAUGUGACAACAUGGGAGGAUAUACAAAGACGAGAGUCGAAGUAGAAGGCCUAAAAA [Garnet 77] | 66.1 nM | 32.6 nM |
| GGGAGGAAGAGAGAGGAUAUCCAAAGGAAAACAUGAGGAUCACCCAUGUAAAAGGUAGGAAAUUGGGAGAAGGCUCAAAAGAAGG [salish99-ss2-045] | 27.6 nM | 36.5 nM |
| AACUAACAUGAGGAUCACCCAUGUAUUCAAACAUGAGGAUAUAUAACACAUCAUCAACAGAUAGAAGGCAUAAAUA [JR_SS001_Sub1204] | 93 nM | 82.3 nM |
| GAAAAACAUGAGGAUCACCCAUGUGAGAUAAACACAGGAUAUGCGAAAAUAAACAAAUAAGCAGAAGGGUGAAAAG [Mat - Same State 1 - Tesla mod - 80] | 27.1 nM | 92.4 nM |
| AAAUAAAUGACUCAGGAUAUGUCAGAGAAAACAUGAGGAUCACCCAUGUAAUAAUAACAUGUGUGACAGAAGGGAGUCAAUAAAU [LROPPY Same State 2 - v01_deltaG=.6] | 27.2 nM | 15 nM |
| AUAUAUAUAAGGUAGGAUAUCCAAAAAUCCACAUGAGGAUCACCCAUGUAAAGAAAGAAAAAAUGGGAGAAGGACCAUAUAUAUA [77%, More Tesla, 6] | 16.9 nM | 31.9 nM |
| AGAAAACAUGAGGAUCACCCAUGUAGAAAUAUGGGAGGAUAUACGAAGACGAAAGUCAAAGUAGAAGGCCUAAGAA [Mat - Same State 1 - Eli mod - D108] | 18.8 nM | 51.7 nM |

| Sequence | apparent KD of MS2 coat protein (MS2 coat protein [1]) | apparent KD of MS2 coat protein (MS2 coat protein [2]) |
| --- | --- | --- |
| AAUACACAUAGUCAGGAUAUCAAAAAUAAGACAUGAGGAUCACCCAUGUAAUAAGUAAAAGUAAAUGAGAAGGGACAGGGUGACC [JR_SS002_Sub403] | 1560 nM | 199 nM |
| AGAAAUAAAGCUGAGGAUAUGGGUAAAUACACAUGAGGAUCACCCAUGUAAAAGAAAAUAAAAAACCAGAAGGCAGCAAAUAAGA [Designing denovo 4] | 23.4 nM | 30.8 nM |
| AAAACACAUGAGGAUCACCCAUGUAGAAAUACGGGAGGAUAUGCUAAAACGAAAGACAAUGUAGAAGGCCUAAAAG [saturn 10] | 37.7 nM | 59.6 nM |
| CAGAGACAUGAGGAUCACCCAUGUAGGAUUAUGGGAGGAUAUACAAAGACGAGAGUCAGAGUAGAAGGCCUAGGAG [salish99-ss1-143] | 24 nM | 48.6 nM |
| AAAUGAUCAUGUGAGGAUAUCCAUAAUAAAACAUGAGGAUCACCCAUGUAUAGAUAAUAAUAAUGGGAGAAGGCACAUGAUCAAU [Mat - Same state - Mayanna Mod - D103] | 20 nM | 17.2 nM |
| AAGAAACAUGAGGAUCACCCAUGUAAGAUAAACACAGGAUAUGCGAAAAUAAAUAAAUAAGCAGAAGGGUGAAAAG [Mat - Same State 1 - Tesla mod - 75] | 19.9 nM | 32.4 nM |
| AGAAGACAUGAGGAUCACCCAUGUGCACGUGGAGGAGGAUAUGCUAGUAGAAGAUAGAAUGCAGAAGGCCUAAGAA [Mat - Mod] | 51.9 nM | 38.5 nM |
| UAUAAACAUGAGGAUCACCCAUGUAGAAAUAUGGGAGGAUAUACGAAGACGAAAGUCAAAGUAGAAGGCCUAAUAU [Mat - Same State 1 - Eli mod - D113] | 16.9 nM | 49.2 nM |
| AAACCACAUGAGGAUCACCCAUGUAAAAAAAACACAGGAUAUGGAAACACGAAAGUGAAACCAGAAGGGUGAAAAA [77%, Mat - Mod of Eli, 26] | 18.4 nM | 26.2 nM |
| AACCAACAUGAGGAUCACCCAUGUCAACCCAAGCGAGGAUAUCGGAGAAUAACAAUGGGACGAGAAGGCGCGACCU [ss1-2] | 34.4 nM | 36.9 nM |
| AAGAAACAUGAGGAUCACCCAUGUAAGAUAAACACAGGAUAUGCGAAUAAAAUAAAUAAAGCAGAAGGGUGAAGAA [Mat - Same State 1 - Tesla mod - D150] | 17.1 nM | 34.3 nM |
| AACAAUCUAUCUGAGGAUAUGAUGUCAAAGACAUGAGGAUCACCCAUGUCCAGGAAAACUGGAUAUCAGAAGGCAGAUAGAUUGA [SS2: 1104] | 10.2 nM | 12.9 nM |
| GAGGACAUAGUACAGGAUAUAUGAAUAGUUACAUGAGGAUCACCCAUGUGCAUUUAUAUGCGAACAUAGAAGGGUGGUAGUUAUC [SameState2 Malc#30] | 136 nM | 68.9 nM |
| UAGAGAACAGGGUAGGAUAUGCAUGGUCGUACAUGAGGAUCACCCAUGUAGUCUAGAAAAUAAAUGCAGAAGGACCAAAAGAAAA [Edsodiin] | 15.6 nM | 32 nM |
| AGAUCUAGAAGGUAGGAUAUGUGAAAAAAAACAUGAGGAUCACCCAUGUGAUGAAUAAAAAGAAAAUAGAAGGACCAUCUAGAUC [Cross swing 1] | 16 nM | 59 nM |
| AGGAGACAUGAGGAUCACCCAUGUAGAAGGAUGGGAGGAUAUACAAAGACGAGAGUCAGAGUAGAAGGCCUAGGAA [salish99-ss1-182(!)] | 19.7 nM | 55.4 nM |
| AAUCCAAAUAGUCAGGAUAUCAAAAAUAAGACAUGAGGAUCACCCAUGUAAUAAGUAAAAGUAAAUGAGAAGGGACAGGGUGAAA [JR_SS002_Sub401] | 398 nM | 92.8 nM |
| AGAAAUAAAAGAGAGGAUAUCCAAAAAGGGACAUGAGGAUCACCCAUGUAAAAGAAAAUAAAAUGGGAGAAGGCUCAAAAUAAAG [80%, More Helter Skelter 2] | 97.3 nM | 120 nM |
| AGAAGACAUGAGGAUCACCCAUGUGGGAUUAUGGGAGGAUAUACAAAGACGAGAGUCAGAGUAGAAGGCCUAGGAU [salish99-ss1-113(!)] | 24.7 nM | 70.8 nM |
| GAAAAACAUGAGGAUCACCCAUGUAGAAAUAUGGGAGGAUAUACGAAGACGAAAGUCAAAGUAGAAGGCCUAAAAG [Mat - Same State 1 - Eli mod - D22] | 28 nM | 57.3 nM |
| UAGAGACAUGAGGAUCACCCAUGUAGGAUUAUGGGAGGAUAUACAAAGACGAGAGUCAGAGUAGAAGGCCUAGGAU [salish99-ss1-134(!)] | 27.4 nM | 61.4 nM |
